Assay results from patent US20240034772A1 (published 2024).
Numbering of substitutions follows the chain as printed.

B1: MPE8 (antibody, V domains shown)
VH: EVQLVESGGGLVKPGGSLRLSCAASGFTFSSYSMNWVRQAPGKGLEWVSSISASSSYSDYADSAKGRFTISRDNAKTSLFLQMNSLRAEDTAIYFCARARATGYSSITPYFDIWGQGTLVTVSS
VL: QSVVTQPPSVSGAPGQRVTISCTGSSSNIGAGYDVHWYQQLPGTAPKLLIYDNNNRPSGVPDRFSASKSGTSASLAITGLQAEDEADYYCQSYDRSLSGVFGTGTKVTVL
B2: MPE33_S36A (antibody, V domains shown)
VH: QVQLQESGPGLVKPSQTLSLTCTVSGDSISNGAYCWNWVRQPAGKGLEWIGRIYPIGNTNYNPSLKSRVTISLDTSKNQFSLKLASVTAADTAVYYCAREARIFEGYYYYYYGLDVWGQGTTVTVSS
VL: EIVLTQSPATLSLSPGERATLSCRASQTISSYLAWYQQKPGQAPRLLISDVSKRATGIPARFSGSGSGTDFTLTISSLEPEDFAVYYCHQRSNWDTFGQGTKLEIK
B3: MPE33_C38A (antibody, V domains shown)
VH: B2 VH with A33S, C35A
VL: B2 VL
B4: MPE33_N34S (antibody, V domains shown)
VH: B2 VH with N31S, A33S
VL: B2 VL
B5: MPE33_C38S (antibody, V domains shown)
VH: B2 VH with A33S, C35S
VL: B2 VL
B6: MPE33_N34S_C38Y (antibody, V domains shown)
VH: B2 VH with N31S, A33S, C35Y
VL: B2 VL
B7: MPE33_C38Y (antibody, V domains shown)
VH: B2 VH with A33S, C35Y
VL: B2 VL
B8: MPE33_N34Q (antibody, V domains shown)
VH: B2 VH with N31Q, A33S
VL: B2 VL

The binders below were run against PRE (human metapneumovirus (hMPV), strain …, UniProt Q6WB98 19-489) (assay: ELISA; pre-fusion F).
Sequence of PRE (Q6WB98 19-489): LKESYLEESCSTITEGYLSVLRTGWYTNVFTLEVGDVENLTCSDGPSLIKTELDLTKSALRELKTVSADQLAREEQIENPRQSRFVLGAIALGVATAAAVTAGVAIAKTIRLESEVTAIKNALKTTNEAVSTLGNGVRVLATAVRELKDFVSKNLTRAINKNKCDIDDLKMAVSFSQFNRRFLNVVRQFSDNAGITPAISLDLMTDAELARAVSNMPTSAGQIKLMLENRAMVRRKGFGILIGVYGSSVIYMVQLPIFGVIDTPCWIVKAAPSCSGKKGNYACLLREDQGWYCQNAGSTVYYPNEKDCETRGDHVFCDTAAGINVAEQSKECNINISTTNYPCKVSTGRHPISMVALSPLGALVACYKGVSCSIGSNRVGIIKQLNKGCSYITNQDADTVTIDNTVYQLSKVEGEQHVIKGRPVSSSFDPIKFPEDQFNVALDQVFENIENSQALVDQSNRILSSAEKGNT
Work on B1 yielded an EC50 of 34.8 ng/mL.

What follows are binders tested against MPV pre-fusion F protein (conformationally stabilized, CAN97-83 MPV strain) (human metapneumovirus (hMPV), strain …, UniProt Q6WB98 19-489) (assay: ELISA).
Sequence of MPV pre-fusion F protein (conformationally stabilized, CAN97-83 MPV strain) (Q6WB98 19-489): as above
Binder B2 has an EC50 of 2.31 ng/mL. B3 was tested, and the EC50 was 1.51 ng/mL. B4 was tested, and the EC50 was 1.56 ng/mL. Binder B5 has an EC50 of 2.39 ng/mL. B6 showed an EC50 of 2.87 ng/mL. Binder B7 has an EC50 of 2.5 ng/mL. With B8 the EC50 was 1.96 ng/mL.

The binders below were run against POST (human metapneumovirus (hMPV), strain …, UniProt Q6WB98 19-489) (assay: ELISA; post-fusion F).
Sequence of POST (Q6WB98 19-489): as above
For B1, the EC50 was 769000 ng/mL.
